{
  "source": "paper PMC10828404",
  "biological_target": "ACE2 receptor on ACE2-expressing HEK 293T cells (UniProt Q9BYF1)",
  "sequence (Q9BYF1 18-805)": "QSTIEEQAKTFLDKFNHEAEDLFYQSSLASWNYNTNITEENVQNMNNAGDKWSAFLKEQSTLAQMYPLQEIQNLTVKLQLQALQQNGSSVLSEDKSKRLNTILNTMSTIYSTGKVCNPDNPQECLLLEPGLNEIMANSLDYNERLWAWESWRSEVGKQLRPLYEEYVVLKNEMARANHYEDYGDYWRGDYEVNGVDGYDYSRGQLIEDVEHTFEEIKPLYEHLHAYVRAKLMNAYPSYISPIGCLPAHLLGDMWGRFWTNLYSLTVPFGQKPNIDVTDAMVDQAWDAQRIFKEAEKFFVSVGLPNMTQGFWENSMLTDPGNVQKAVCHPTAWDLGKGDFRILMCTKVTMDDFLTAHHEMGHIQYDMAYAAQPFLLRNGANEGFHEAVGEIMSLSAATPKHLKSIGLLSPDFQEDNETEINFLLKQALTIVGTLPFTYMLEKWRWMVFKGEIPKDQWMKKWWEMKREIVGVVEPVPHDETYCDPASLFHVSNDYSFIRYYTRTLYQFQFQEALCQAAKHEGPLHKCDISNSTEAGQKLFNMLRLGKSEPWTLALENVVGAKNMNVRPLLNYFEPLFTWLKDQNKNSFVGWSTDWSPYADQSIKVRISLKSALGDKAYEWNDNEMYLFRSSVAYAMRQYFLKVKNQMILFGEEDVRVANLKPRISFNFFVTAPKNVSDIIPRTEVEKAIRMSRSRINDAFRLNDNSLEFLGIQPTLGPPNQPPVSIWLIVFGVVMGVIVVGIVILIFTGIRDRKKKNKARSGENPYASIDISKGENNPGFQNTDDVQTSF",
  "assay": "flow cytometry on cells",
  "data": [
    {"substance": "DNA-VLP-Cy5-30x (icosahedral DNA origami displaying 30 copies of the SARS-CoV-2 RBD and 5 copies of Cy5)", "values": [
      {"measurement": "fold increase in median fluorescence intensity (corrected for Cy5 brightness per RBD) against monomeric RBD-Cy5", "result": 10, "unit": "fold"}
    ]}
  ]
}
